Changes are numbered by the printed parent chain. In names and notes the source's numbering stands.
Key:
[1] = target: T1, full length cynomolgus monkey 5T4 on transfected HEK-293 cells (cynomolgus monkey, UniProt Q4R8Y9 35-420); test: flow cytometry, HEK-293 cells transfected with cynomolgus monkey 5T4, PE secondary [II)B]
T1 construct: Uniprot Q4R8Y9; residues 1-34 are the signal peptide; also called cynomolgus 5T4
T1 sequence: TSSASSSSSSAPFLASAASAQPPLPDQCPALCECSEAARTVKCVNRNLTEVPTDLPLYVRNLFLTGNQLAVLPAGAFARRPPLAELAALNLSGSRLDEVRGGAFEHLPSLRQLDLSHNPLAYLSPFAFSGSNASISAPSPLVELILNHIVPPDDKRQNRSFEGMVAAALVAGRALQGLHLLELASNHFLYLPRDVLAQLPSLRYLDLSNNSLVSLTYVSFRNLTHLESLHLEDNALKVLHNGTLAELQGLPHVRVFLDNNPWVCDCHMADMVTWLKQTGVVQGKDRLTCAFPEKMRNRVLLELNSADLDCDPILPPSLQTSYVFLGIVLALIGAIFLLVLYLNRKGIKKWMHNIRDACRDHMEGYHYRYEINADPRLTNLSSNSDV

[2] = target: T2, full length human 5T4 (SEQ ID NO: 1) on cells (human, UniProt Q13641 32-420); test: flow cytometry, HeLa cells, PE secondary [II)B]
T2 construct: Uniprot Q13641; residues 1-31 are the signal peptide; Used both for transfected HEK-293 cells and for 5T4-expressing human tumor cell lines
T2 sequence: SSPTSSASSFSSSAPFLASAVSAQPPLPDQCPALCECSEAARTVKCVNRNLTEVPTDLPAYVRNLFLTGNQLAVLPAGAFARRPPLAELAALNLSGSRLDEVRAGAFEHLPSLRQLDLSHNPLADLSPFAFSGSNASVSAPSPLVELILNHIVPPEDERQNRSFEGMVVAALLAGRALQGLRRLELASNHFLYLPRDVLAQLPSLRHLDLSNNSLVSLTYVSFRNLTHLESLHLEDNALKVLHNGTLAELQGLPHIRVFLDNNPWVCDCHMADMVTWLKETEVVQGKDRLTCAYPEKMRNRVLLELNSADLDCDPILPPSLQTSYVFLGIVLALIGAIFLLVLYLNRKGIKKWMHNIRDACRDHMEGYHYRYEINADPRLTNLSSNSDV

[3] = target: T2, full length human 5T4 (SEQ ID NO: 1) on …; test: flow cytometry, MDA-MB-231 cells, FITC secondary [I)C]
[4] = target: T1, full length cynomolgus monkey 5T4 on …; test: flow cytometry, HEK-293 cells transfected with cynomolgus monkey 5T4, FITC secondary [I)B]
[5] = target: T2, full length human 5T4 (SEQ ID NO: 1) on …; test: flow cytometry, HEK-293 cells transfected with human 5T4, FITC secondary [I)B]
[6] = target: T2, full length human 5T4 (SEQ ID NO: 1) on …; test: flow cytometry, HEK-293 cells transfected with human 5T4, PE secondary [II)B]
[7] = target: T2, full length human 5T4 (SEQ ID NO: 1) on …; test: flow cytometry, MDA-MB-231 cells, PE secondary [III)B]
[8] = target: T2, full length human 5T4 (SEQ ID NO: 1) on …; test: flow cytometry, HeLa cells, FITC secondary [I)C]
[9] = target: T1, full length cynomolgus monkey 5T4 on …; test: flow cytometry, HEK-293 cells transfected with cynomolgus monkey 5T4, PE secondary [II)D]
[10] = target: T2, full length human 5T4 (SEQ ID NO: 1) on …; test: flow cytometry, HeLa cells, PE secondary [II)D]
[11] = target: T2, full length human 5T4 (SEQ ID NO: 1) on …; test: flow cytometry, MDA-MB-231 cells, PE secondary [III)D]
[12] = target: T2, full length human 5T4 (SEQ ID NO: 1) on …; test: flow cytometry, HeLa cells, PE secondary [II)G]
[13] = target: T1, full length cynomolgus monkey 5T4 on …; test: flow cytometry, HEK-293 cells transfected with cynomolgus monkey 5T4, PE secondary [II)H]
[14] = target: T2, full length human 5T4 (SEQ ID NO: 1) on …; test: flow cytometry, MDA-MB-231 cells, PE secondary [III)E]
[15] = target: T3, human 5T4ECDHis (mature protein of SEQ ID NO: 99) (human, UniProt Q13641 32-355); test: BLI cross-block; competitor (immobilised): IgG1-5T4-H8-FEAR
T3 construct: ECD of human 5T4 (aa 1-355 of Uniprot Q13641) with C-terminal His tag; residues 1-31 are the signal peptide; also called ECD of human 5T4 with a C-terminal His tag
T3 sequence: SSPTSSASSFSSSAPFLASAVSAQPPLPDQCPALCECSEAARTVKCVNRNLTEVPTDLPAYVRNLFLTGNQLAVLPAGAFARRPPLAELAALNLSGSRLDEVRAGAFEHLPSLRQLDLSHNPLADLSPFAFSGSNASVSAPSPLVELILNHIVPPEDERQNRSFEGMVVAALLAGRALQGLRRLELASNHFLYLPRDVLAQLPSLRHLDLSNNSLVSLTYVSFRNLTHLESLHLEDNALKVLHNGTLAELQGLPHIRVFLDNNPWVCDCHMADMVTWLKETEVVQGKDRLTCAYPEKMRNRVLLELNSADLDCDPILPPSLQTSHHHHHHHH

[16] = target: T3, human 5T4ECDHis (mature protein of SEQ …); test: BLI cross-block; competitor (immobilised): IgG1-5T4-076-FEAR
[17] = target: T3, human 5T4ECDHis (mature protein of SEQ …); test: BLI cross-block; competitor (immobilised): IgG1-5T4-A1-F405L
[18] = target: T1, full length cynomolgus monkey 5T4 on …; test: flow cytometry, HEK-293 cells transfected with cynomolgus monkey 5T4, PE secondary [II)F]
[19] = target: T3, human 5T4ECDHis (mature protein of SEQ …); test: BLI cross-block; competitor (immobilised): IgG1-5T4-106-FEAR
[20] = target: T3, human 5T4ECDHis (mature protein of SEQ …); test: BLI cross-block; competitor (immobilised): IgG1-5T4-059-FEAR
[21] = target: T3, human 5T4ECDHis (mature protein of SEQ …); test: BLI cross-block; competitor (immobilised): IgG1-5T4-085-FEAR
[22] = target: T3, human 5T4ECDHis (mature protein of SEQ …); test: BLI cross-block; competitor (immobilised): IgG1-5T4-A3-F405L
[23] = target: T3, human 5T4ECDHis (mature protein of SEQ …); test: BLI cross-block; competitor (immobilised): IgG1-5T4-226-FEAR
[24] = target: T3, human 5T4ECDHis (mature protein of SEQ …); test: BLI cross-block; competitor (immobilised): IgG1-5T4-127-FEAR
[25] = target: T3, human 5T4ECDHis (mature protein of SEQ …); test: BLI cross-block; competitor (immobilised): IgG1-5T4-207-FEAR

B1: bsIgG1-huCD3-H101G-FEALx5T4-226-FEAR (bispecific antibody)
heavy: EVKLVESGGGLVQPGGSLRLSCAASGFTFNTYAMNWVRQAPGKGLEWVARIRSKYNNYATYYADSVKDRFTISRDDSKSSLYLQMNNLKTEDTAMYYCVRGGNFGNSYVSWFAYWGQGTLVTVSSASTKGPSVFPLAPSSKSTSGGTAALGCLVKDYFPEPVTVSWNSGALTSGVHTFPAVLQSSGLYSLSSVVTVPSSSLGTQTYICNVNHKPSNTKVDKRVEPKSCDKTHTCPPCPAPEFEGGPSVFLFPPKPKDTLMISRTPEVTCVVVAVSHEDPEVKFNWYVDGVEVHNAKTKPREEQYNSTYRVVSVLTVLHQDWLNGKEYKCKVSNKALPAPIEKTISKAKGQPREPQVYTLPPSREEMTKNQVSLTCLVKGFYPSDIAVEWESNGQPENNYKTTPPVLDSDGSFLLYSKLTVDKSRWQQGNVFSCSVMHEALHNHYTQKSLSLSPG
light: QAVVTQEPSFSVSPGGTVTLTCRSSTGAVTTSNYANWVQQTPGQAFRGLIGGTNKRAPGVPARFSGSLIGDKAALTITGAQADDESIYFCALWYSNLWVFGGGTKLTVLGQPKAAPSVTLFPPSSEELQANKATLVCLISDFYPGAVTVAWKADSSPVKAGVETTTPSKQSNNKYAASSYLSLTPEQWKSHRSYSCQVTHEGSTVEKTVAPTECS
VH: QVQLQQWGAGLLKPSETLSLTCAVYGGSFSGYYWSWIRQPPGKGLEWIGEIDHSGSTNYNPSLKSRVTISVDTSKNQFSLKLSSVTAADTAVYYCAAWFGELWDYYYGMDVWGQGTTVTVSS
VL: EIVLTQSPATLSLSPGERATLSCRASQSVSSFLAWYQQKPGQAPRLLIYDASNRATGIPARFSGSGSGTDFTLTISSLEPEDFAVYYCQQRSNWPLTFGQGTRLEIK
notes: Fab-arm exchange product
[1]
  EC50 (read off the curve): ~0.06 µg/mL
[2]
  EC50 (read off the curve): ~0.04 µg/mL
[3]
  EC50 (read off the curve): ~0.1 µg/mL
[4]
  EC50 (read off the curve): ~0.1 µg/mL
[5]
  EC50 (read off the curve): ~0.2 µg/mL
[6]
  EC50 (read off the curve): ~0.1 µg/mL
[7]
  EC50 (read off the curve): ~0.04 µg/mL
[8]
  EC50 (read off the curve): ~0.02 µg/mL

B2: bsIgG1-huCD3-H101G-FEALx5T4-106-FEAR (bispecific antibody)
heavy: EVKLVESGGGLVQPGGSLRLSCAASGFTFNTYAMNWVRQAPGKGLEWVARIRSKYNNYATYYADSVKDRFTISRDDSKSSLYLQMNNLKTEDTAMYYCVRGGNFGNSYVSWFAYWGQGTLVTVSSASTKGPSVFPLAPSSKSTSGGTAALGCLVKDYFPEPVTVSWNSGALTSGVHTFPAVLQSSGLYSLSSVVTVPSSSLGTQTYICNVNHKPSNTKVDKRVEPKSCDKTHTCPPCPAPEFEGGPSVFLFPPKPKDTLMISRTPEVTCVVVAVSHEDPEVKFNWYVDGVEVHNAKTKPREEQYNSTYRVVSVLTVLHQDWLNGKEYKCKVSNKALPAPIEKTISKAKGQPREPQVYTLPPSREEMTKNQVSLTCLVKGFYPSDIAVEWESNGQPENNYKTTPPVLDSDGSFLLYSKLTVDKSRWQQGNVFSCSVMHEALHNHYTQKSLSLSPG
light: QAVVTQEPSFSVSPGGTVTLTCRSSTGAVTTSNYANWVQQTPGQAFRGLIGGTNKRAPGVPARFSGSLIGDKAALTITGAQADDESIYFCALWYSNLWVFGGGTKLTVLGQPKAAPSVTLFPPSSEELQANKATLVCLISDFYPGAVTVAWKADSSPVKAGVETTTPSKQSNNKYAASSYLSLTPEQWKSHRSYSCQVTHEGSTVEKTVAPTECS
VH: EVQLVQSGAEVKKPGESLKISCKGSGYRFTSYWIGWVRQMPGKGLEWMGIIYPGDSDARYSPSFQGQVTISADKSISTAYLQWSSLKASDTGMYYCARSVLFDYWGQGTLVTVSS
VL: AIQLTQSPSSLSASVGDRVTITCRASQGISSALAWYQQKPGKAPKLLIYDVSNLESGVPSRFSGSGSGTDFTLTISSLQPEDFATYYCQQFNSYPHTFGQGTKLEIK
notes: Fab-arm exchange product
[9]
  binding result: binds
[10]
  EC50 (read off the curve): ~0.1 µg/mL
[11]
  EC50 (read off the curve): ~0.1 µg/mL

B3: IgG1-5T4-A1-FEAR (antibody, V domains shown)
VH: QIQLVQSGPELKKPGETVKISCKASGYTFTNFGMNWVKQGPGEGLKWMGWINTNTGEPRYAEEFKGRFAFSLETTASTAYLQINNLKNEDTATYFCARDWDGAYFFDYWGQGTTLTVSS
VL: SIVMTQTPKFLLVSAGDRVTITCKASQSVSNDVAWYQQKPGQSPKLLINFATNRYTGVPNRFTGSGYGTDFTFTISTVQAEDLALYFCQQDYSSPWTFGGGTKLEIK
notes: Based on A1 from Wyeth; IgG1 with L234F, L235E, D265A, K409R (FEAR)
[12]
  binding result: binds
[13]
  EC50 (read off the curve): ~0.1 µg/mL

B4: IgG1-5T4-085-FEAR (antibody, V domains shown)
VH: EVQLLESGGGLVQPGGSLRLSCAASGFTFSSYAMSWVRQAPGKGLEWVSAISGSGGSTYNADSVKGRFTIFRDNSKNTLYLHMNSLRAEDTAVYYCARDPGYNNVEYLDHWGQGTLVTVSS
VL: B2 VL with V51A, N53S, H96L, Q100G, L104V
notes: Monospecific, bivalent human IgG1 kappa with L234F, L235E, D265A, K409R (FEAR)
[14]
  EC50 (read off the curve): ~0.04 µg/mL
[15]
  corrected association response: -0.02 nm
[16]
  corrected association response: -0.02 nm
[17]
  corrected association response: 0.72 nm
[18]
  EC50 (read off the curve): ~0.008 µg/mL
[19]
  corrected association response: -0.04 nm
[20]
  corrected association response: -0.02 nm
[21]
  corrected association response: -0.01 nm
[22]
  corrected association response: 0 nm
[23]
  corrected association response: 1.35 nm
[24]
  corrected association response: -0.01 nm
[25]
  corrected association response: 1.03 nm

From patent US20230257479A1 (Genmab, published 2023)
